Test results as given in patent US10766952B2, “Methods for reducing migraine frequency in a subject in need thereof” (Beth Israel Deaconess Medical Center, Inc., priority 2017, dated 2020).

T1: rat α-CGRP (Rattus norvegicus, UniProt P01256)
T1 construct: rat α (1-37); host or cells: synthetic peptide
T1 sequence (P01256 83-119 limits assumed): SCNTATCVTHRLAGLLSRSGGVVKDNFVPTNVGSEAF

T2: human α-CGRP (Homo sapiens, UniProt P06881)
T2 construct: 1-37 (WT); purchased; host or cells: synthetic peptide
T2 sequence (P06881 83-119 limits assumed): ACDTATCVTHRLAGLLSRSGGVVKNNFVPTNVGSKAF


Tests used:
rat α-CGRP = biological target: T1, rat α-CGRP; test: Biacore affinity of antibody G1 Fab and variants to rat α-CGRP; type: binding; details: 37° C., Fab, screening mode unless underlined
Description: (§1) Biacore assay for affinity determination. […] All Biacore assays were conducted in HBS-EP running buffer (10 mM HEPES pH 7.4, 150 mM NaCl, 3 mM EDTA, 0.005% v/v polysorbate P20). CGRP surfaces were prepared by diluting the N-biotinylated CGRP to a concentration of less than 0.001 mg/mL into HBS-EP buffer and injecting it across the SA sensor chip using variable contact times. Low capacity surfaces, corresponding to capture levels <50 response units (RU) were used for high-resolution kinetic studies, whereas high capacity surfaces (about 800 RU of captured CGRP) were used for concentration studies, screening, and solution affinity determinations. […] Samples were typically injected for lminute at 100 μL/min and dissociation times of at least 10 minutes were allowed. After each binding cycle, surfaces were regenerated with 25 mM NaOH in 25% v/v ethanol, which was tolerated over hundreds of cycles. An entire titration series (typically generated in duplicate) was fit globally to a 1:1 Langmuir binding model using the BlAevaluation program. This returned a unique pair of association and dissociation kinetic rate constants (respectively, kon and koff) for each binding interaction, whose ratio gave the equilibrium dissociation constant (KD=koff/[…]).
(§2) High-resolution analysis of binding interactions with extremely slow offrates. […] The protocol described above was used with the following modifications. The association rate constant (kon) was determined by injecting a 2-fold titration series (in duplicate) spanning 550 nM-1 nM for 30 seconds at 100 μL/min and allowing only a 30 second dissociation phase. The dissociation rate constant (koff) was determined by injecting three concentrations (high, medium, and low) of the same titration series in duplicate for 30 seconds and allowing a 2-hour dissociation phase. The affinity (KD) of each interaction was obtained by combining the kon and koff values obtained in both types of experiments, as shown in Table 4.
(§3) The binding affinities of Fab fragments were determined by Biacore by flowing them across CGRPs on a SA chip.

human α-CGRP = biological target: T2, human α-CGRP; test: Biacore affinity of antibody G1 Fab and variants to human α-CGRP; type: binding; details: 37° C., Fab, screening mode unless underlined
Description: as §1, §2, §3

Molecule	α-rat koff (rat α-CGRP) [s⁻¹]	α-human koff (human α-CGRP) [s⁻¹]
M50: G1 variant: L1 R28N; L2 G50A,L56T; H2 E54K,A57R; HC-FW3 L99T,A100V (antibody, V domains shown) VH: EVQLVESGGGLVQPGGSLRLSCAASGFTFSNYWISWVRQAPGKGLEWVAEIRSKSDRSATHYAEAVKGRFTISRDNAKNSLYLQMNSLRAEDTAVYYCTVYFDYGLAIQNYWGQGTLVTVSS VL: EIVLTQSPATLSLSPGERATLSCKASKNVTTYVSWYQQKPGQAPRLLIYAASNRYTGIPARFSGSGSGTDFTLTISSLEPEDFAVYYCSQSYNYPYTFGQGTKLEIK	0.0053	0.000406
M56: G1 variant: L1 R28N,T30D; L2 L56S; H2 E54K,A57N,H61F; HC-FW3 L99T,A100V (antibody, V domains shown) VH: EVQLVESGGGLVQPGGSLRLSCAASGFTFSNYWISWVRQAPGKGLEWVAEIRSKSDNSATFYAEAVKGRFTISRDNAKNSLYLQMNSLRAEDTAVYYCTVYFDYGLAIQNYWGQGTLVTVSS VL: EIVLTQSPATLSLSPGERATLSCKASKNVDTYVSWYQQKPGQAPRLLIYGASNRYSGIPARFSGSGSGTDFTLTISSLEPEDFAVYYCSQSYNYPYTFGQGTKLEIK	0.00935	0.000479
M53: G1 variant: L1 R28N; L2 L56I; H2 E54K,A57N,S58G; HC-FW3 L99T,A100V (antibody, V domains shown) VH: EVQLVESGGGLVQPGGSLRLSCAASGFTFSNYWISWVRQAPGKGLEWVAEIRSKSDNGATHYAEAVKGRFTISRDNAKNSLYLQMNSLRAEDTAVYYCTVYFDYGLAIQNYWGQGTLVTVSS VL: EIVLTQSPATLSLSPGERATLSCKASKNVTTYVSWYQQKPGQAPRLLIYGASNRYIGIPARFSGSGSGTDFTLTISSLEPEDFAVYYCSQSYNYPYTFGQGTKLEIK	0.00191	0.000374
M55: G1 variant: L1 R28N,T30A; L2 L56S; H2 E54K,A57N,S58E,E64D; HC-FW3 L99T,A100V (antibody, V domains shown) VH: EVQLVESGGGLVQPGGSLRLSCAASGFTFSNYWISWVRQAPGKGLEWVAEIRSKSDNEATHYADAVKGRFTISRDNAKNSLYLQMNSLRAEDTAVYYCTVYFDYGLAIQNYWGQGTLVTVSS VL: EIVLTQSPATLSLSPGERATLSCKASKNVATYVSWYQQKPGQAPRLLIYGASNRYSGIPARFSGSGSGTDFTLTISSLEPEDFAVYYCSQSYNYPYTFGQGTKLEIK	0.00585	0.000478
M52: G1 variant: L1 R28N; L2 L56I; H2 E54K,A57N,S58A; HC-FW3 L99T,A100V (antibody, V domains shown) VH: EVQLVESGGGLVQPGGSLRLSCAASGFTFSNYWISWVRQAPGKGLEWVAEIRSKSDNAATHYAEAVKGRFTISRDNAKNSLYLQMNSLRAEDTAVYYCTVYFDYGLAIQNYWGQGTLVTVSS VL: EIVLTQSPATLSLSPGERATLSCKASKNVTTYVSWYQQKPGQAPRLLIYGASNRYIGIPARFSGSGSGTDFTLTISSLEPEDFAVYYCSQSYNYPYTFGQGTKLEIK	0.00229	0.000281

Now from value to molecule:

α-rat koff (rat α-CGRP) [s⁻¹]	α-human koff (human α-CGRP) [s⁻¹]	Molecule
0.00294	0.000539	M46: G1 variant: L1 R28N; L2 G50A,L56T; H2 E54K,A57N,S58E,H61F; HC-FW3 L99T,A100V (antibody, V domains shown) VH: EVQLVESGGGLVQPGGSLRLSCAASGFTFSNYWISWVRQAPGKGLEWVAEIRSKSDNEATFYAEAVKGRFTISRDNAKNSLYLQMNSLRAEDTAVYYCTVYFDYGLAIQNYWGQGTLVTVSS VL: EIVLTQSPATLSLSPGERATLSCKASKNVTTYVSWYQQKPGQAPRLLIYAASNRYTGIPARFSGSGSGTDFTLTISSLEPEDFAVYYCSQSYNYPYTFGQGTKLEIK
0.0148	0.000595	M49: G1 variant: L1 R28N; L2 G50A,L56T; H2 E54K,A57N,S58Y,H61F; HC-FW3 L99T,A100V (antibody, V domains shown) VH: EVQLVESGGGLVQPGGSLRLSCAASGFTFSNYWISWVRQAPGKGLEWVAEIRSKSDNYATFYAEAVKGRFTISRDNAKNSLYLQMNSLRAEDTAVYYCTVYFDYGLAIQNYWGQGTLVTVSS VL: EIVLTQSPATLSLSPGERATLSCKASKNVTTYVSWYQQKPGQAPRLLIYAASNRYTGIPARFSGSGSGTDFTLTISSLEPEDFAVYYCSQSYNYPYTFGQGTKLEIK
0.00216	0.00179	M54: G1 variant: L1 R28N,T30A; L2 G50A; H2 E54K,A57N,S58P; HC-FW3 L99T,A100V (antibody, V domains shown) VH: EVQLVESGGGLVQPGGSLRLSCAASGFTFSNYWISWVRQAPGKGLEWVAEIRSKSDNPATHYAEAVKGRFTISRDNAKNSLYLQMNSLRAEDTAVYYCTVYFDYGLAIQNYWGQGTLVTVSS VL: EIVLTQSPATLSLSPGERATLSCKASKNVATYVSWYQQKPGQAPRLLIYAASNRYLGIPARFSGSGSGTDFTLTISSLEPEDFAVYYCSQSYNYPYTFGQGTKLEIK
0.00118	0.000131	M51: G1 variant: L1 R28N; L2 L56I; H2 E54K,A57G; HC-FW3 L99T,A100V (antibody, V domains shown) VH: EVQLVESGGGLVQPGGSLRLSCAASGFTFSNYWISWVRQAPGKGLEWVAEIRSKSDGSATHYAEAVKGRFTISRDNAKNSLYLQMNSLRAEDTAVYYCTVYFDYGLAIQNYWGQGTLVTVSS VL: EIVLTQSPATLSLSPGERATLSCKASKNVTTYVSWYQQKPGQAPRLLIYGASNRYIGIPARFSGSGSGTDFTLTISSLEPEDFAVYYCSQSYNYPYTFGQGTKLEIK
0.00823	0.000332	M47: G1 variant: L1 R28N; L2 G50A,L56T; H2 E54K,A57N,S58G; HC-FW3 L99T,A100V (antibody, V domains shown) VH: EVQLVESGGGLVQPGGSLRLSCAASGFTFSNYWISWVRQAPGKGLEWVAEIRSKSDNGATHYAEAVKGRFTISRDNAKNSLYLQMNSLRAEDTAVYYCTVYFDYGLAIQNYWGQGTLVTVSS VL: EIVLTQSPATLSLSPGERATLSCKASKNVTTYVSWYQQKPGQAPRLLIYAASNRYTGIPARFSGSGSGTDFTLTISSLEPEDFAVYYCSQSYNYPYTFGQGTKLEIK
0.0343	0.000842	M48: G1 variant: L1 R28N; L2 G50A,L56T; H2 E54K,A57N,S58L; HC-FW3 L99T,A100V (antibody, V domains shown) VH: EVQLVESGGGLVQPGGSLRLSCAASGFTFSNYWISWVRQAPGKGLEWVAEIRSKSDNLATHYAEAVKGRFTISRDNAKNSLYLQMNSLRAEDTAVYYCTVYFDYGLAIQNYWGQGTLVTVSS VL: EIVLTQSPATLSLSPGERATLSCKASKNVTTYVSWYQQKPGQAPRLLIYAASNRYTGIPARFSGSGSGTDFTLTISSLEPEDFAVYYCSQSYNYPYTFGQGTKLEIK
